Target: T1, Receptor-associated protein (RAP) (human, UniProt P30533 35-353)
T1 sequence (looked up): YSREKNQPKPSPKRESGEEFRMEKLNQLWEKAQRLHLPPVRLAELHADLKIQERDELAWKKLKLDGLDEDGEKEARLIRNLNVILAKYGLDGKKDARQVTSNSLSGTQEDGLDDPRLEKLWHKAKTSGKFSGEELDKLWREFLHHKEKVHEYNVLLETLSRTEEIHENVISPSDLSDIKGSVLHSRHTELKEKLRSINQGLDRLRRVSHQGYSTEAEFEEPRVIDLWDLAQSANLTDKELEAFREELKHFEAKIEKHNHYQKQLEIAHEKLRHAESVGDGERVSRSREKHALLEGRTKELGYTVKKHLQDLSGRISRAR
Experiment: BLI

B1: ApoER2 isoform 1 LBD-Fc fusion protein (Fc fusion)
chain: not shown
**Q.** Does B1 bind?
**A.** binds

Reference: publication PMC8808280 (Nature, 2021)
